Data: patent publication US20150086553A1 (SAMSUNG ELECTRONICS, published 2015)

T1: full-length Annexin A1 protein (346 amino acids; Accession No. NP-000691.1) (human, UniProt P04083 1-346)
T1 construct: Biotinylated for biopanning; coated at 4 ug per well for ELISA
T1 sequence: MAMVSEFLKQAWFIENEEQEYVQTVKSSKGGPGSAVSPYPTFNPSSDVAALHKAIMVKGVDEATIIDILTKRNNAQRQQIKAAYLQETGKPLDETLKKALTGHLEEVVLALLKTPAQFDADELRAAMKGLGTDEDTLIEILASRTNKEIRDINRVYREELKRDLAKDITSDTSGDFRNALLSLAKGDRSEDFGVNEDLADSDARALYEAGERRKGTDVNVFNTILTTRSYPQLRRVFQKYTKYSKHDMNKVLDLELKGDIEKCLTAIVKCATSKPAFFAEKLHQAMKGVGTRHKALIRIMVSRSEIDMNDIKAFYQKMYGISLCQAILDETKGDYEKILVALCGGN

T2: Annexin A1 on cancer cells (SNU1, MDA-MB-231) (UniProt P04083 2-346, limits assumed)
T2 construct: whole, on cells; Endogenous protein of cancer cell lines said to overexpress Annexin A1; Assay buffer was HBSS(+) with Ca2+ and Mg2+; also called Annexin A1 on cancer cell surfaces; extracellular portion of Annexin A1 in cancer cells
T2 sequence (looked up): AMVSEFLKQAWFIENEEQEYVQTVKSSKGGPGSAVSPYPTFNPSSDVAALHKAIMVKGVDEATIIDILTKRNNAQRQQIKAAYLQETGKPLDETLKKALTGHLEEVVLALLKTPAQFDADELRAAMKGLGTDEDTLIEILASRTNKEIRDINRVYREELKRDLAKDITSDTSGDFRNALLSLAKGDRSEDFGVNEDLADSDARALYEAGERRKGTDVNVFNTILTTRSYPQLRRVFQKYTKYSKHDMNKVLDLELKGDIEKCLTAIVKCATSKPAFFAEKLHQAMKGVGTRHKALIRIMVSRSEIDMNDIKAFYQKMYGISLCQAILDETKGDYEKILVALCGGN

T3: Annexin A1 N-terminal peptide (30 amino acids, biotin conjugated) (biotin conjugated form (position not given))
T3 construct: Synthetic peptide, captured on streptavidin-coated plates for ELISA; also called N-terminal region of Annexin A1; Annexin A1 N-terminus
T3 peptide: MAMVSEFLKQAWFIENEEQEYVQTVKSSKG


Legend:
[1] = target: T1, full-length Annexin A1 protein (346 …); experiment: scFv selected by ELISA on plate-coated full-length Annexin A1, anti-HA-HRP detection
[2] = target: T2, Annexin A1 on cancer cells (SNU1, …); experiment: cell-based ELISA on SNU1 and MDA-MB-231 cells, 250/125/25 ng scFv per well, anti-HA-HRP
Procedure: The selected Annexin A1-binding scFv was analyzed for binding specificity by cell-based ELISA using the cancer cells SNU1 and MDA-MB-231 in which Annexin A1 is overexpressed.
Briefly, after SNU1 (ATCC) and MDA-MB-231 (ATCC) cancer cells were maintained at 37° C. in RPMI-1640 and DMEM, respectively, under a supply of 5% CO₂, they were seeded at a density of 5×10⁵ cells into 96-well plates (NUNC). Purified proteins from the selected scFv (N32, N33, N43, N46, N48, N314, N36, F2, F4, F5, F6, F8, F10) were added in an amount of 250 ng, 125 ng, or 25 ng to each well, incubated at 4° C. for 90 min, and washed twice with HBSS (+) buffer (Gibco, 14025-092; HBSS containing Ca²⁺ and Mg²⁺; calcium chloride (CaCl₂) 12.6 mM, magnesium chloride 4.9 mM, and magnesium sulfate 4 mM). Thereafter, a 1/200 dilution of an anti-HA-HRP secondary antibody (Santa Cruz), configured to detect an HA tag conjugated to an scFv terminus, was added to in an amount of 50 ul to each well, and incubated for 1 hr. A color was developed for 10 min with the addition of 150 ul of the Super AquaBlue ELISA substrate solution (eBioScience) for the HRP of the secondary antibody. Absorbance was read at 405 nm to determine the binding of scFv to the Annexin A1 on cancer cells.

[3] = target: T3, Annexin A1 N-terminal peptide (30 amino …); experiment: scFv selected by ELISA on biotinylated N-terminal peptide on streptavidin plates, anti-HA-HRP detection
[4] = target: T3, Annexin A1 N-terminal peptide (30 amino …); experiment: scFv selected by ELISA on biotinylated N-terminal peptide

| Binder | binding result [1] | binding result [2] | binding result [3] | binding result [4] |
| --- | --- | --- | --- | --- |
| scFv F6 (scFv, also called clone C5) scFv: EVQLLESGGGLVQPGGSLRLSCAASGFTFSNYAMSWVRQAPGKGLEWVSSISSNSGNKYYADSVKGRFTISRDNSKNTLYLQMNSLRAEDTAVYYCAKATLGMDHIHAYSAYGMDVWGQGTLVTVSSGGGGSGGGGSGGGGSQSVLTQPPSASGTPGQRATISCTGSSSNIGSNSVSWYQQLPGTAPKLLIYANSNRPSGVPDRFSGSKSGTSASLAISGLRSEDEADYYCAAWDDSLNAYVFGGGTKLTVLG | binds | binds |  |  |
| scFv F10 (scFv) scFv: EVQLLESGGGLVQPGGSLRLSCAASGFTFSDYSMSWVRQAPGKGLEWVSVISPDSSNTYYADSVKGRFTISRDNSKNTLYLQMNSLRAEDTAVYYCAKVTGTCGPRSCYYYDAMDVWGQGTLVTVSSGGGGSGGGGSGGGGSQSVLTQPPSASGTPGQRVTISCSGSSSNIGSNAVSWYQQLPGTAPKLLIYYNSHRPSGVPDRFSGPKSGTSASLAISGLRSEDEADYYCATWDSSLNGYVFGGGTKLTVLG | binds | binds |  |  |
| scFv F5 (scFv, also called clone B5) scFv: EVQLLESGGGLVQPGGSLRLSCAASGFTFSDYAMSWVRQAPGKGLEWVSGISYGGGNTYYADSVKGRFTISRDNSKNTLYLQMNSLRAEDTAVYYCAKRLGSFDYWGQGTLVTVSSGGGGSGGGGSGGGGSQSVLTQPPSASGTPGRRVTISCTGTSSNIGSNYVSWYRQLPGTAPKLLIYAGNHRPSGVPDRFSGSKSGTSASLAISGLRSEDEADYYCGSWDSSLSAYVFGGGTKLTVLG | binds | binds |  |  |
| scFv N43 (scFv) scFv: EVQLLESGGGLVQPGGSLRLSCAASGFTFSDYSMGWVRQAPGRGLEWVSGIYPSGGNTYYADSVKGRFTISRDNSKNTLYLQMNSLRAEDTAVYYCAKRPSRFDYWGQGTLVAVSSGGGGSGGGGSGGGGSQSVLTQPPSASGTPGQRVTISCTGSSSNIGNNDVNWYQQLPGTAPKLLIYSNSHRPSGVPDRFSGSKSGTSASLAISGLRSEDEADYYCGTWDDSLNGYVFGGGTKLTVLG |  | binds | binds |  |
| scFv N34 (scFv, also called clone C11) scFv: EVQLLESGGGLVQPGGSLRLSCAASGFTFSNYAMSWVRQAPGKGLEWVSAIYPGGGSIYYADSVKGRFTISRDNSKNTLYLQMNSLRAEDTAVYYCARRLQIFDYWGQGTLVTVSSGGGGSGGGGSGGGGSQSVLTQPPSASGTPGQRVTISCTGSSSNIGSNNVTWYQQLPGTAPKLLIYSDSHRPSGVPDRFSGSKSGTSASLAISGLQSEDEADYYCGSWDYSLSAYVFGGGTKLTVLG |  |  |  | binds |

The remaining lines, values ahead:

| binding result [1] | binding result [2] | binding result [3] | binding result [4] | Binder |
| --- | --- | --- | --- | --- |
| binds | binds |  |  | scFv F4 (scFv) scFv: EVQLLESGGGLVQPGGSLRLSCAASGFTFSGYYMSWVRQAPGKGLEWVSSISPSGSSIYYADSVKGRFTISRDNSKNTLYLQMNSLRAEDTAVYYCAKGSPGFDYWGQGTLVTVSSGGGGSGGGGSGGGGSQSVLTQPPSASGAPGQRVTISCSGSSFNIGSNDVSWYQQLPGTAPKLLIYSDSHRPSGVPDRFSGSKSGTSASLAISGLQSEDEADYYCGSWDYSLSAYVFGGGTKLTVLG |
|  | binds | binds |  | scFv N32 (scFv, also called clone C9) scFv: EVQLLESGGGLVQPGGSLRLSCAASGFTFSNYAMSWVRQAPGKGLEWVSGIYPNSGSNTYYADSVKGRFTISRDNSKNTLYLQMNSLRAEDTAVYYCARRPTLFDYWGQGTLVTVGSGGGGSGGGGSGGGGSQSVLTQPPSASGTPGQRVTISCTGSSSNIGSNSVNWYQQLPGTAPKLLIYSDSHRPSGVPDRFSGSKSGTSASLAISGLQSEDEADYYCATWDDSLNGYVFGGGTKLTVLG |
|  | binds | binds |  | scFv N314 (scFv, also called clone G11) scFv: EVQLLESGGGLVQPGGSLRLSCAASGFTFGGYAMSWVRQAPGKGLEWVSGIYPGGGSTYYADSVKGRFTISRDNSKNTLYLQMNSLRAEDTAVYYCARRLTIFDYWGQGTLVTVSSGGGGSGGGGSGGGGSQSVLTQPPSASGTPGQRVTISCSGSSSNIGNNDVTWYQQLPGTAPKLLIYSDSHRPSGVPDRFSGSKSGTSASLAISGLRSEDEADYYCGTWDDSLSGYVFGGGTKLTVLG |
| binds | binds |  |  | scFv F8 (scFv, also called clone G3) scFv: EVQLLESGGGLVQPGGSLRLSCAASGFTFSSYSMSWVRQAPGKGLEWVSGISPGSGSIYYADSVKGRFTISRDNSKNTLYLQMNSLRAEDTAVYYCARRIHPFDYWGQGTLVAVSSGGGGSGGGGSGGGGSQSVLTQPPSASGTPGQRVTISCTGSSSNIGNNDVSWYQQLPGTAPKLLIYSDNQRPSGVPGRFSGSKSGTSASLAISGLRSEDEADYYCGAWDSSLNAYVFGGGTKLTVLG |
